Laboratory results: US20040254352A1, “Lipid-polymer-conjugates” (priority 2001, published 2004)
“And” between values parts separate entries of the source, which are not always exact repeats. Identical values can stand only once.

Columns and labels:
[1] = Comparative kinetics of 3H-labelled liposomes containing polymer-lipid-conjugates after a single intravenous injection to the rat (blood circulation time); conditions: for Increase of blood circulation time: rat, single i.v. injection; for Blood circulation time of the liposomes compared with PEG-grafted liposomes: intravenous administration to rats
Procedure: Single-dose intravenous injection of liposomal preparations, each containing ^3H-labelled cholesteryloleylether (Amersham) having 40-50 kBq of radioactivity, (compositions per 50 μmol lipid are shown in Table 1) was given into the tail-vein. Total Lipid administered was 5 μmol, except in the cases indicated.
Blood samples were collected from the tail vein of each rat at the following time points post-dose: 5 minutes and 4, 24 and 48 hours. The amount of sample collected was approx. 300 μl per sampling event.
Sampled blood was transferred into heparinised tubes and stored at −20° C.
A single aliquot of 100 μl was solubilised according to the following method:
Radioactivity was measured by LSC.
All radioactive measurements were performed using a Packard scintillation counter (1900TR). Counting time was to a statistical precision of ±0.2% or a maximum of 5 minutes, whichever comes first. The Packard 1900TR was programmed to automatically subtract background and convert counts per minute (CPM) to disintegrations per minute (DPM).
The increase of blood circulation time was assessed, wherein:
Moderate means effect on circulation time in between those shown by PEG-DSPE-containing liposomes and bare liposomes without polymer coating.
Slightly means effect on circulation time under the current conditions almost similar to that shown by bare liposomes.

[2] = Particle size and polydispersity of liposomes by (dynamic) light scattering; format: physicochemical
[3] = as above; format: physicochemical; conditions: DPPC/cholesterol/conjugate liposomes of Table 1 (Example 21); for Average particle size: dynamic light scattering
Procedure: The lipid loss during preparation of the liposomes was 25%, determined by comparing the final radioactivity of the preparation with the activity before the extrusion procedure. The suspension of liposomes was stored in a nitrogen atmosphere at 4° C. Liposomes were prepared using the film method, as described in example 20. Instead of egg phosphatidylcholine dipalmitoyl phosphatidylcholine was used. 5 mM HEPES buffer was added to the dry lipid film and shaken during 5 minutes in the presence of glass beads in order to enable complete hydration of the lipid film. The liposomes were sized by extrusion 12 times through 2 stacked PC membranes having pore sizes of 100 and 200 nm. […] See table 1 for the properties of the liposomal preparations.

[4] = Storage stability of prednisolone phosphate liposomes at 4° C. (percentage encapsulated prednisolone phosphate versus time); conditions: compared with poly(2-hydroxyethyl)-L-glutamine-diaminobutane DODASuc-conjugate-containing liposome
[5] = Total Lipid administered 5 μmol
[6] = prednisolone phosphate liposomes of Example 23, light scattering
[7] = Total Lipid administered 0.005 μmol
[8] = Total Lipid administered 0.05 μmol
[9] = Total Lipid administered 0.5 μmol
[10] = 11.2 mg conjugate per 50 µmol lipid
[11] = 13.8 mg conjugate per 50 µmol lipid

Row | Compound | Increase of blood circulation time [1, 5] | Average particle size [3] | Polydispersity index [3] | also measured
1 | Poly(DL-serine) DODASuc [Ex. 13] | Slightly | – | – | –
2 | Poly-L-threonine DODASuc [compound 14] | – | – | – | Mean particle size [2, 6]: about 85 nm
3 | PEG-distearoylphosphatidylethanol-amine [PEG-DSPE, reference compound] | Good | 156.3 nm | – | Mean particle size [2, 6]: ~90 nm; Increase of blood circulation time [1, 7]: <Slightly; Increase of blood circulation time [1, 8]: Good; Increase of blood circulation time [1, 9]: Good
4 | Poly-[(2-hydroxypropyl)-L-glutamine]diaminobutane DODASuc [Ex. 5.2] | – | – | – | Average particle size [3, 10]: 163.9 ± 3.0 nm; Average particle size [3, 11]: 153.0 ± 0.9 nm; Polydispersity index [3, 10]: 0.068; Polydispersity index [3, 11]: 0.090
5 | Poly(2-hydroxyethyl)-DL-glutamine diaminobutane DODASuc [Ex. 7] | – | 159.0 ± 3.8 nm | 0.073 | –
6 | poly-[N-(2-hydroxyethyl)-L-glutamine]-stearylamine [Ex. 20] | – | 171.6 ± 2.5 nm | 0.167 | Polydispersity index ([2]; EPC/cholesterol/PHEG-stearylamine liposomes of Example 20): 0.099±0.02; Mean particle size ([2]; EPC/cholesterol/PHEG-stearylamine liposomes of Example 20, light scattering (Malvern Zeta-sizer)): 93.6±0.9 nm
7 | Poly-[(4-hydroxybutyl)-L-glutamine]diaminobutane DODASuc [Ex. 5.4] | – | 148.2 ± 1.7 nm | 0.071 | –
8 | Poly-[N-(2-hydroxyethyl)-L-glutamine] Having a Distearylamine End Group Introduced Via N-Boc-1,4-diaminobutane as Initiator [Ex. 3] | – | 153 ± 0.5 nm | 0.056 | –
9 | PHEG-diaminobutane DODASuc [Ex. 5.1] | Good and Good § | 140.3 ± 2.2 nm and 159.0 ± 3.8 nm | 0.090 and 0.073 | Blood circulation time of the liposomes compared with PEG-grafted liposomes [1]: Results similar to those obtained with the corresponding PEG-grafted liposomes
10 | poly(HEG-co-dimethylaminoethylglutamine)diaminobutane DODASuc; 5% dimethylaminoethyl sidegroups [Ex. 9] | Moderate | 170.3 ± 2.5 nm | 0.039 | –
11 | Poly(DL-glutamine DODASuc [Ex. 16] | Moderate | – | – | –
12 | Poly(N-(2-hydroxyethyl)-L-glutamine) Having a Heptadecyloctadecylamine End Group [Ex. 2] | – | 143 ± 2 nm | 0.205 | –
13 | CCCCCCCCCCCCCCCCCCN(CCCCCCCCCCCCCCCCCC)C(=O)CCC(=O)NCCC(=O)NCCC(=O)NCCC(=O)N[C@@H](CCC(=O)NCCO)C(=O)NCCC(=O)NCCC(=O)NCCC(=O)NCCC(=O)N[C@@H](CCC(=O)NCCO)C(=O)NCCC(=O)NCCC(=O)NCCC(=O)N[C@@H](CCC(=O)NCCO)C(=O)NCCC(=O)NCCC(N)=O [Ex. 19, DODASuc-(β-Ala)3-HEG-(β-Ala)4-HEG-(β-Ala)3-HEG-(β-Ala)2-NH2] | Moderate | – | – | –
14 | Poly(DL-asparagine) DODASuc [Ex. 17] | Moderate | – | – | –
15 | Poly(2-hydroxyethyl)-L-asparagine DODASuc [Ex. 11] | Good and Good § | – | – | Stability of liposomal preparation with encapsulated prednisolone phosphate [4]: slightly better result; Blood circulation time of the liposomes compared with PEG-grafted liposomes [1]: Results similar to those obtained with the corresponding PEG-grafted liposomes; Increase of blood circulation time [1, 7]: Slightly; Increase of blood circulation time [1, 8]: Good; Increase of blood circulation time [1, 9]: Good
16 | Cholesteryl-PHEG [Ex. 6] | Slightly | 138.7 ± 1.8 nm | 0.116 | –
17 | Poly(D,L-methionine sulfoxide) DODASuc [Ex. 15] | Good | 159.9 ± 2.3 nm | 0.062 | Blood circulation time of the liposomes compared with PEG-grafted liposomes [1]: Results similar to those obtained with the corresponding PEG-grafted liposomes
